The target of the test is C-terminal mycHis-tagged Rp1L1 (1-361), expressed in COS7 cells (mouse) (UniProt Q8CGM2). Kind of test: co-IP.
UniProt Q8CGM2, sequence (Q8CGM2 1-361): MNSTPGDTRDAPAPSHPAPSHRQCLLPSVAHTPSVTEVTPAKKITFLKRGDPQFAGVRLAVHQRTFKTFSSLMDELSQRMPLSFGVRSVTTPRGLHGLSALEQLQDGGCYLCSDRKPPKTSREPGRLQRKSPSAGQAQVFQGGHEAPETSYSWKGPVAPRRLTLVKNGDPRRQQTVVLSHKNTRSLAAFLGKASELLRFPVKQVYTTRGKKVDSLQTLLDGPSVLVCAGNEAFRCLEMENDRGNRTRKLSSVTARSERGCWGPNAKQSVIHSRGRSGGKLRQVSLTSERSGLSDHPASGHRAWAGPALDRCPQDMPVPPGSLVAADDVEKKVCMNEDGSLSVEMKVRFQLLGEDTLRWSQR

“N-terminal FLAG-tagged full-length Rp1, P56716 1-2095”: the percent of FLAG-Rp1 co-immunoprecipitated was found to be 12%.

For the origin of these results see article PMC2748320.
